Measurements taken from US20260273029A1, “DRY EYE TREATMENT” (Inoculus Ventures, LLC, priority 2022, published 2026).

Experiments:
S. Aureus biofilms [1] = conditions: existing data; cited from earlier work
S. Aureus biofilms [2] = assay: Preliminary assessment of amylases on biofilms: reduction of existing biofilm; assay type: cell-based; conditions: for Reduces Biofilm: Table 1, preliminary assessment of activity on Biofilms
Text: (§1) Non-limiting examples of amylases contemplated by the disclosure and their preliminary assessment of their activity on Biofilms is listed on Table 1: […]

S. Aureus biofilms [3] = assay: Preliminary assessment of amylases on biofilms: prohibition of biofilm growth; assay type: cell-based; conditions: Table 1, preliminary assessment of activity on Biofilms
Text: as §1

| Molecule | in-vitro effectiveness at the inhibition and reduction of S. Aureus biofilms (S. Aureus biofilms [1]) | Reduces Biofilm, time (S. Aureus biofilms [2]; Table 1, reduces biofilm only after this time) | Prohibits Biofilm Growth (S. Aureus biofilms [3]) | Reduces Biofilm (S. Aureus biofilms [2]) |
| --- | --- | --- | --- | --- |
| α-Amylase from Bacillus subtilis: α-amylase from Bacillus subtilis (Sigma, catalog #10070) (protein, UniProt P00691 42-659, looked up) Alpha-amylase: LTAPSIKSGTILHAWNWSFNTLKHNMKDIHDAGYTAIQTSPINQVKEGNQGDKSMSNWYWLYQPTSYQIGNRYLGTEQEFKEMCAAAEEYGIKVIVDAVINHTTSDYAAISNEVKSIPNWTHGNTQIKNWSDRWDVTQNSLLGLYDWNTQNTQVQSYLKRFLDRALNDGADGFRFDAAKHIELPDDGSYGSQFWPNITNTSAEFQYGEILQDSASRDAAYANYMDVTASNYGHSIRSALKNRNLGVSNISHYASDVSADKLVTWVESHDTYANDDEESTWMSDDDIRLGWAVIASRSGSTPLFFSRPEGGGNGVRFPGKSQIGDRGSALFEDQAITAVNRFHNVMAGQPEELSNPNGNNQIFMNQRGSHGVVLANAGSSSVSINTATKLPDGRYDNKAGAGSFQVNDGKLTGTINARSVAVLYPDDIAKAPHVFLENYKTGVTHSFNDQLTITLRADANTTKAVYQINNGPETAFKDGDQFTIGKGDPFGKTYTIMLKGTNSDGVTRTEKYSFVKRDPASAKTIGYQNPNHWSQVNAYIYKHDGSRVIELTGSWPGKPMTKNADGIYTLTLPADTDTTNAKVIFNNGSAQVPGQNQPGFDYVLNGLYNDSGLSGSLPH | certain in-vitro effectiveness | ≥ 3 h | Yes | – |
| α-Amylase from human saliva: α-amylase from human saliva (Sigma, catalog #A1031) (protein, UniProt P0DUB6 16-511, looked up) Alpha-amylase 1A: QYSSNTQQGRTSIVHLFEWRWVDIALECERYLAPKGFGGVQVSPPNENVAIHNPFRPWWERYQPVSYKLCTRSGNEDEFRNMVTRCNNVGVRIYVDAVINHMCGNAVSAGTSSTCGSYFNPGSRDFPAVPYSGWDFNDGKCKTGSGDIENYNDATQVRDCRLSGLLDLALGKDYVRSKIAEYMNHLIDIGVAGFRIDASKHMWPGDIKAILDKLHNLNSNWFPEGSKPFIYQEVIDLGGEPIKSSDYFGNGRVTEFKYGAKLGTVIRKWNGEKMSYLKNWGEGWGFMPSDRALVFVDNHDNQRGHGAGGASILTFWDARLYKMAVGFMLAHPYGFTRVMSSYRWPRYFENGKDVNDWVGPPNDNGVTKEVTINPDTTCGNDWVCEHRWRQIRNMVNFRNVVDGQPFTNWYDNGSNQVAFGRGNRGFIVFNNDDWTFSLTLQTGLPAGTYCDVISGDKINGNCTGIKIYVSDDGKAHFSISNSAEDPFIAIHAESKL | certain in-vitro effectiveness | – | Yes | No |
| β-Amylase from sweet potato: β-Amylase from sweet potato, Sigma Aldrich research grade (protein, UniProt P10537 2-499, looked up) Beta-amylase: APIPGVMPIGNYVSLYVMLPLGVVNADNVFPDKEKVEDELKQVKAGGCDGVMVDVWWGIIEAKGPKQYDWSAYRELFQLVKKCGLKIQAIMSFHQCGGNVGDAVFIPIPQWILQIGDKNPDIFYTNRAGNRNQEYLSLGVDNQRLFQGRTALEMYRDFMESFRDNMADFLKAGDIVDIEVGCGAAGELRYPSYPETQGWVFPGIGEFQCYDKYMVADWKEAVKQAGNADWEMPGKGAGTYNDTPDKTEFFRPNGTYKTDMGKFFLTWYSNKLIIHGDQVLEEANKVFVGLRVNIAAKVSGIHWWYNHVSHAAELTAGFYNVAGRDGYRPIARMLARHHATLNFTCLEMRDSEQPAEAKSAPQELVQQVLSSGWKEYIDVAGENALPRYDATAYNQMLLNVRPNGVNLNGPPKLKMSGLTYLRLSDDLLQTDNFELFKKFVKKMHADLDPSPNAISPAVLERSNSAITIDELMEATKGSRPFPWYDVTDMPVDGSNPFD | certain in-vitro effectiveness | – | Partially | No |
